Measurements: patent US20090156485A1

Tests used:
[1] = target: human hair (hair keratin) (human); assay: quantitative hair binding test, after 10% strength SDS treatment
[2] = target: human hair (hair keratin) (human); assay: quantitative hair binding test, anti-polyHis peroxidase conjugate, TMB
[3] = target: human skin (skin keratin) (human); assay: quantitative skin binding test on human keratinocytes, after 10% strength SDS treatment
[4] = target: human skin (skin keratin) (human); assay: quantitative skin binding test on human keratinocytes in microtiter plates, anti-His antibody, TMB

| Binder | Absorption at 405 nm (A405 nm (standardized to the surface)) [1] | Absorption at 405 nm (A405 nm (standardized to the surface)) [2] | Absorption at 405 nm (A405 nm (standardized to the surface)) [3] | Absorption at 405 nm (A405 nm (standardized to the surface)) [4] |
| --- | --- | --- | --- | --- |
| KBD-D (keratin-binding domain of human plakophilin, SEQ ID No.: 168) (protein) MRGSHHHHHHGSACELGTMNHSPLKTALAYECFQDQDNSTLALPSDQKMKTGTSGRQRVQEQVMMTVKRQKSKSSQSSTLSHSNRGSMYDGLADNYNYGTTSRSSYYSKFQAGNGSWGYPIYNGTLKREPDNRRFSSYSQMENWSRHYPRGSCNTTGAGSDICFMQKIKASRSEPDLYCDPRGTLRKGTLGSKGQKTTQNRYSFYSTCSGQKAIKKCPVRPPSCASKQDPVYIPPISCNKDLSFGHSRASSKICSEDIECSGLTIPKAVQYLSSQDEKYQAIGAYYIQHTCFQDESAKQQVYQLGGICKLVDLLRSPNQNVQQAAAGALRNLVFRSTTNKLETRRQNGIREAVSLLRRTGNAEIQKQLTGLLWNLSSTDELKEELIADALPVLADRVIIPFSGWCDGNSNMSREVVDPEVFFNATGCLRNLSSADAGRQTMRNYSGLIDSLMAYVQNCVAASRCDDKSVENCMCVLHNLSYRLDAEVPTRYRQLEYNARNAYTEKSSTGCFSNKSDKMMNNNYDCPLPEEETNPKGSGWLYHSDAIRTYLNLMGKSKKDATLEACAGALQNLTASKGLMSSGMSQLIGLKEKGLPQIARLLQSGNSDVVRSGASLLSNMSRHPLLHRVMGNQVFPEVTRLLTSHTGNTSNSEDILSSACYTVRNLMASQPQLAKQYFSSSMLNNIINLCRSSASPKAAEAARLLLSDMWSSKELQGVLRQQGFDRNMLGTLAGANSLRNFTSRF | 0.62 | 0.88 | 3.15 | 3.69 |
| KBD-B (keratin-binding domain B of human desmoplakin, SEQ ID No.: 166) (protein) MRGSHHHHHHGSACELEPHTGLLLLSVQKRSMSFQGIRQPVTVTELVDSGILRPSTVNELESGQISYDEVGERIKDFLQGSSCIAGIYNETTKQKLGIYEAMKIGLVRPGTALELLEAQAATGFIVDPVSNLRLPVEEAYKRGLVGIEFKEKLLSAERAVTGYNDPETGNIISLFQAMNKELIEKGHGIRLLEAQIATGGIIDPKESHRLPVDIAYKRGYFNEELSEILSDPSDDTKGFFDPNTEENLTYLQLKERCIKDEETGLCLLPLKEKKKQVQTSQKNTLRKRRVVIVDPETNKEMSVQEGVDLQPSLIS | – | – | 0.185 | 0.93 |
